# Laboratory results reported in US9701713B2, “Compositions and methods for introduction of macromolecules into cells” (The Regents of the University of Colorado, a body corporate, priority 2011, dated 2017).
# B1: αB crystallin: recombinant human αB-crystallin (HSPB5) without transduction peptide, used as comparator (protein)
# chain: MDIAIHHPWIRRPFFPFHSPSRLFDQFFGEHLLESDLFPTSTSLSPFYLRPPSFLRAPSWFDTGLSEMRLEKDRFSVNLDVKHFSPEELKVKVLGDVIEVHGKHEERQDEHGFISREFHRKYRIPADVDPLTITSSLSSDGVLTVNGPRKQVSGPERTIPITREEKPAVTAAPKK
# B2: TAT-αB crystallin: αB crystallin fused to the TAT cell-penetrating peptide (GRKKRRQRRRPQ) of human immunodeficiency virus (protein)
# chain: GRKKRRQRRRPQDIAIHHPWIRRPFFPFHSPSRLFDQFFGEHLLESDLFPTSTSLSPFYLRPPSFLRAPSWFDTGLSEMRLEKDRFSVNLDVKHFSPEELKVKVLGDVIEVHGKHEERQDEHGFISREFHRKYRIPADVDPLTITSSLSSDGVLTVNGPRKQVSGPERTIPITREEKPAVTAAPKK
# Legend:
# P23H rhodopsin = molecular target: T1, P23H rhodopsin (Homo sapiens, UniProt P08100, P23H); assay: Cell model of aggregation-prone P23H rhodopsin; format: cell-based; settings: aggregation-prone mutant P23H rhodopsin
# T1 construct: expressed in transfected cells
# Source text: As shown, α crystallin prevents aggregation of the aggregation-prone mutant of rhodpsin, P23H rhodopsin.
# This mutation is the cause of the major form of retinitis pigmentosa in humans.
# [1] = test system: human lens epithelial cells (HLE B3); assay: Uptake of Alexa Fluor 488 labeled crystallins into human lens epithelial cells; format: cell-based; settings: Alexa Fluor 488 label, equal amounts of protein
# Experimental: Since in vitro properties of alpha crystallin were unaffected by the addition of the NTD peptide, the ability of the NTD tag to enhance uptake of client proteins into living cells was investigated. To monitor cell uptake, wild type and NTD tagged crystallins were labeled with Alexa Fluor 488, a small reporter molecule. Equal amounts of protein were added to separate tissue culture plates containing human lens epithelial cells (HLE B3) and analyzed for their uptake into cells. At various times after addition of the protein to the cell media, cells were fixed and analyzed by fluorescent microscopy for cellular uptake of the labeled proteins. […] (See FIG. 1 and FIG. 6).
# Further, αA- and αB-crystallins with and without the NTD tag were fluorescently-labeled using the fluorescent reporter molecule Alexa Fluor 488, and were incubated with human lens epithelial cells (HLE B3) and human embryonic kidney cells (HEK293). Time-dependent uptake was measured by fluorescent microscopy. At various times after addition of the protein to the cell media, cells were fixed and analyzed by fluorescent microscopy for cellular uptake of the labeled proteins.
# lysozyme = assay: Chaperone-like activity: suppression of chemically-induced lysozyme aggregation; format: biochemical; settings: lysozyme with dithiothreitol at 37° C.
# Source text: The “Relative Absorbance (360 nm)” of lysozyme increases over time under assay conditions. The absorbance increase is an index of protein aggregation. A reduction in the slope of absorbance increase corresponds to inhibition of lysozyme aggregation.
# Recombinant human αA- and αB-crystallins were modified by addition of putative transduction sequences at their N- or C-termini. These proteins were expressed in E. coli and isolated to apparent homogeneity using previously published methods (Cobb et al. 2000). Purified proteins were analyzed by size exclusion chromatography to determine size heterogeneity. CLA was assessed by measuring the ability of candidate proteins to suppress chemically-induced aggregation of substrate protein lysozyme in the presence of dithiothreitol at 37° C.
# human lens cells = assay: Cell penetration and retention of AlexaFluor labeled crystallin in human lens cells over 3 days; format: cell-based; settings: 60 minutes exposure
# Experimental: αB crystallin, with or without fusion to the NTD peptide, was labeled with the small molecular weight fluorescent molecule AlexaFluor. It was then combined with tissue culture nutrient media and applied to a culture plate containing human lens cells. After 60 minutes, the culture media were removed, and replaced with culture media without crystallins. Entry and distribution of crystallins was measured over 3 days by observing fluorescence (green). Cell nuclei were stained with Hoechst dye (blue).
Molecule,fluorescence of P23H rhodopsin (prevention of aggregation) (P23H rhodopsin),intracellular fluorescence (cellular uptake) [1],"chaperone-like activity (suppression of lysozyme aggregation, absorbance 360 nm) (lysozyme)",intracellular crystallin fluorescence (human lens cells; after 48 hours),intracellular crystallin fluorescence (human lens cells; after 72 hours)
alpha crystallin: alpha crystallin with chaperone-like activity applied to cells; b52 and b54 name it αA crystallin,prevented the loss of fluorescence,,,,
B1,,comparatively little intracellular fluorescence,effectively suppress lysozyme aggregation,substantially lost,virtually undetectable
B2,,,does not suppress lysozyme aggregation,,
